Data on five sequences can be found in the supplement of paper PMC5998384.

Series [1] has as its system HeLa Kyoto. In words: thermal stability score vs G1/S (z-score of summed log2 fold changes over temperatures); higher = more thermally stable than in G1/S.
The subject of series [2] is HeLa Kyoto. In words: solubility change mitosis vs G1/S (difference of NP-40 vs SDS log2 ratios) (log2 ratio difference); higher = more soluble in mitosis.
In series [3] the test system is HeLa Kyoto. In words: solubility in G1/S (NP-40 vs SDS abundance) (log2 ratio); higher = more soluble. The conditions noted are these: cell cycle stage: G1/S.
In series [4] the test system is HeLa Kyoto. In words: melting temperature (median over replicates), in situ; higher = more thermally stable.
Setting [5] is: cell cycle stage: early G1 (4.5 h after nocodazole release).
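For melting temperature (median over replicates), in situ in this document: HeLa Kyoto cells synchronized by double thymidine or nocodazole block, proteins quantified by TMT10plex mass spectrometry, three independent biological replicates.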
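For solubility change mitosis vs G1/S (difference of NP-40 vs SDS log2 ratios) in this document: synchronized HeLa Kyoto cells (double thymidine block for G1/S, nocodazole release for mitosis), protein amounts in NP-40 versus SDS lysates quantified by mass spectrometry, three biological replicates.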
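For solubility in G1/S (NP-40 vs SDS abundance) in this document: HeLa Kyoto cells arrested at G1/S by double thymidine block, proteins quantified by TMT10plex mass spectrometry in mild NP-40 versus SDS extracts, three biological replicates.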
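For thermal stability score vs G1/S (z-score of summed log2 fold changes over temperatures) in this document: synchronized HeLa Kyoto cells, proteins quantified by TMT10plex mass spectrometry, three biological replicates, mitosis taken 0.5 h after nocodazole release, G1/S directly after double thymidine block.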

Regarding “MSSVAVLTQESFAEHRSGLVPQQIKVATLNSEEESDPPTYKDAFPPLPEKAACLESAQEPAGAWGNKIRPIKASVITQVFHVPLEERKYKDMNQFGEGEQAKICLEIMQRTGAHLELSLAKDQGLSIMVSGKLDAVMKARKDIVARLQTQASATVAIPKEHHRFVIGKNGEKLQDLELKTATKIQIPRPDDPSNQIKITGTKEGIEKARHEVLLISAEQDKRAVERLEVEKAFHPFIAGPYNRLVGEIMQETGTRINIPPPSVNRTEIVFTGEKEQLAQAVARIKKIYEEKKKKTTTIAVEVKKSQHKYVIGPKGNSLQEILERTGVSVEIPPSDSISETVILRGEPEKLGQALTEVYAKANSFTVSSVAAPSWLHRFIIGKKGQNLAKITQQMPKVHIEFTEGEDKITLEGPTEDVNVAQEQIEGMVKDLINRMDYVEINIDHKFHRHLIGKSGANINRIKDQYKVSVRIPPDSEKSNLIRIEGDPQGVQQAKRELLELASRMENERTKDLIIEQRFHRTIIGQKGERIREIRDKFPEVIINFPDPAQKSDIVQLRGPKNEVEKCTKYMQKMVADLVENSYSISVPIFKQFHKNIIGKGGANIKKIREESNTKIDLPAENSNSETIIITGKRANCEAARSRILSIQKDLANIAEVEVSIPAKLHNSLIGTKGRLIRSIMEECGGVHIHFPVEGSGSDTVVIRGPSSDVEKAKKQLLHLAEEKQTKSFTVDIRAKPEYHKFLIGKGGGKIRKVRDSTGARVIFPAAEDKDQDLITIIGKEDAVREAQKELEALIQNLDNVVEDSMLVDPKHHRHFVIRRGQVLREIAEEYGGVMVSFPRSGTQSDKVTLKGAKDCVEAAKKRIQEIIEDLEAQVTLECAIPQKFHRSVMGPKGSRIQQITRDFSVQIKFPDREENAVHSTEPVVQENGDEAGEGREAKDCDPGSPRRCDIIIISGRKEKCEAAKEALEALVPVTIEVEVPFDLHRYVIGQKGSGIRKMMDEFEVNIHVPAPELQSDIIAITGLAANLDRAKAGLLERVKELQAEQEDRALRSFKLSVTVDPKYHPKIIGRKGAVITQIRLEHDVNIQFPDKDDGNQPQDQITITGYEKNTEAARDAILRIVGELEQMVSEDVPLDHRVHARIIGARGKAIRKIMDEFKVDIRFPQSGAPDPNCVTVTGLPENVEEAIDHILNLEEEYLADVVDSEALQVYMKPPAHEEAKAPSRGFVVRDAPWTASSSEKAPDMSSSEEFPSFGAQVAPKTLPWGPKR [HDLBP]”, the thermal stability score amounted to 1.14 in series [1] (setting [5]) and 3.41 in series [1] (cell cycle stage: mitosis). Also, the “solubility change mitosis (log2)” value in series [2] was -0.084. Further, the “solubility in G1/S (log2)” value in series [3] amounted to 0.183. Also, the melting temperature in series [4] (cell cycle stage: G1/S) was found to be 46.8 °C; in series [4] (cell cycle stage: mitosis) it was 47.6 °C.
On to “MSTAQSLKSVDYEVFGRVQGVCFRMYTEDEARKIGVVGWVKNTSKGTVTGQVQGPEDKVNSMKSWLSKVGSPSSRIDRTNFSNEKTISKLEYSNFSIRY [ACYP2]”, for which the thermal stability score in series [1] (setting [5]) is -0.285; in series [1] (cell cycle stage: mitosis), -1.11. In addition, the “solubility change mitosis (log2)” value in series [2] is -0.0326. In addition, the “solubility in G1/S (log2)” value in series [3] was found to be 0.215. The figures for the melting temperature in series [4] (cell cycle stage: G1/S) and in series [4] (cell cycle stage: mitosis) were 53.7 °C and 53.4 °C, respectively.
Consider “MSTAREQPIFSTRAHVFQIDPATKRNWIPAGKHALTVSYFYDATRNVYRIISIGGAKAIINSTVTPNMTFTKTSQKFGQWADSRANTVYGLGFASEQHLTQFAEKFQEVKEAARLAREKSQDGGELTSPALGLASHQVPPSPLVSANGPGEEKLFRSQSADAPGPTERERLKKMLSEGSVGEVQWEAEFFALQDSNNKLAGALREANAAAAQWRQQLEAQRAEAERLRQRVAELEAQAASEVTPTGEKEGLGQGQSLEQLEALVQTKDQEIQTLKSQTGGPREALEAAEREETQQKVQDLETRNAELEHQLRAMERSLEEARAERERARAEVGRAAQLLDVSLFELSELREGLARLAEAAP [HOMER3]”, for which the thermal stability score in series [1] (setting [5]) is -1.1; in series [1] (cell cycle stage: mitosis) it was -1.09. Moreover, in series [2], the “solubility change mitosis (log2)” value was 0.0389. For the same sequence, the “solubility in G1/S (log2)” value in series [3] turned out to be 0.263. The melting temperature in series [4] (cell cycle stage: G1/S) worked out at 48.7 °C; in series [4] (cell cycle stage: mitosis), 51.7 °C.
Take “MSTNGDDHQVKDSLEQLRCHFTWELSIDDDEMPDLENRVLDQIEFLDTKYSVGIHNLLAYVKHLKGQNEEALKSLKEAENLMQEEHDNQANVRSLVTWGNFAWMYYHMGRLAEAQTYLDKVENICKKLSNPFRYRMECPEIDCEEGWALLKCGGKNYERAKACFEKVLEVDPENPESSAGYAISAYRLDGFKLATKNHKPFSLLPLRQAVRLNPDNGYIKVLLALKLQDEGQEAEGEKYIEEALANMSSQTYVFRYAAKFYRRKGSVDKALELLKKALQETPTSVLLHHQIGLCYKAQMIQIKEATKGQPRGQNREKLDKMIRSAIFHFESAVEKKPTFEVAHLDLARMYIEAGNHRKAEENFQKLLCMKPVVEETMQDIHFHYGRFQEFQKKSDVNAIIHYLKAIKIEQASLTRDKSINSLKKLVLRKLRRKALDLESLSLLGFVYKLEGNMNEALEYYERALRLAADFENSVRQGP [IFIT1]”: the thermal stability score in series [1] (setting [5]) was determined as 1.47; in series [1] (cell cycle stage: mitosis), 2.07. The “solubility change mitosis (log2)” value in series [2] is -0.063. Also, the “solubility in G1/S (log2)” value in series [3] was determined as 0.322. For the same sequence, the melting temperature in series [4] (cell cycle stage: G1/S) stood at 49.1 °C; in series [4] (cell cycle stage: mitosis), 48.3 °C.
With “MSVDMNSQGSDSNEEDYDPNCEEEEEEEEDDPGDIEDYYVGVASDVEQQGADAFDPEEYQFTCLTYKESEGALNEHMTSLASVLKVSHSVAKLILVNFHWQVSEILDRYKSNSAQLLVEARVQPNPSKHVPTSHPPHHCAVCMQFVRKENLLSLACQHQFCRSCWEQHCSVLVKDGVGVGVSCMAQDCPLRTPEDFVFPLLPNEELREKYRRYLFRDYVESHYQLQLCPGADCPMVIRVQEPRARRVQCNRCNEVFCFKCRQMYHAPTDCATIRKWLTKCADDSETANYISAHTKDCPKCNICIEKNGGCNHMQCSKCKHDFCWMCLGDWKTHGSEYYECSRYKENPDIVNQSQQAQAREALKKYLFYFERWENHNKSLQLEAQTYQRIHEKIQERVMNNLGTWIDWQYLQNAAKLLAKCRYTLQYTYPYAYYMESGPRKKLFEYQQAQLEAEIENLSWKVERADSYDRGDLENQMHIAEQRRRTLLKDFHDT [ARIH2]”, the values for the thermal stability score in series [1] (setting [5]) and in series [1] (cell cycle stage: mitosis) were 0.643 and -0.0869, respectively. Further, in series [2], the “solubility change mitosis (log2)” value is -0.151. Also, the “solubility in G1/S (log2)” value in series [3] is -0.242. Also, the melting temperature in series [4] (cell cycle stage: G1/S) amounted to 51.8 °C; in series [4] (cell cycle stage: mitosis), 52.3 °C.
